T1: SEMA3A-FC (R&D systems) (Homo sapiens (Human), UniProt Q14563 22-771)
T1 construct: Bought reagent; not shown: Fc portion of the bought fusion, detected with anti-human IgG
T1 sequence: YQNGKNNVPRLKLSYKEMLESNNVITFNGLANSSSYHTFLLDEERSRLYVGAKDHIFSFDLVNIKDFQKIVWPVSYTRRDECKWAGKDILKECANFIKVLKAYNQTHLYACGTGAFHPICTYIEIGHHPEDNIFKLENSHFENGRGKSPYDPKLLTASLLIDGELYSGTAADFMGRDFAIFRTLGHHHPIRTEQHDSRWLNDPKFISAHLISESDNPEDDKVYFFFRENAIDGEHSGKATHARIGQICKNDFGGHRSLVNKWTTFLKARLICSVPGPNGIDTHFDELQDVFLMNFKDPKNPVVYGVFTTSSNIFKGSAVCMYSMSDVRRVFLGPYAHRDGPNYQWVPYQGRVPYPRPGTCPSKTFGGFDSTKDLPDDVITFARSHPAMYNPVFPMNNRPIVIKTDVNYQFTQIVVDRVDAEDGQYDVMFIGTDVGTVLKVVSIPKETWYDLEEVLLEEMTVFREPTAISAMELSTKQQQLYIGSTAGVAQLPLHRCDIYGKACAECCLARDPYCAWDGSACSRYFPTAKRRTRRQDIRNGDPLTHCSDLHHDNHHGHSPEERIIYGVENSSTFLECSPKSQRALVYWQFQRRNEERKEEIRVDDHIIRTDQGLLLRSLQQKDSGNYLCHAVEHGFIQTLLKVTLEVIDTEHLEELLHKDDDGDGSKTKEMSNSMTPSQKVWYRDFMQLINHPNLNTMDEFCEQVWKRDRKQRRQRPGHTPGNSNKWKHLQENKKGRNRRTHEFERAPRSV

B1: NRP1 trap Z (receptor)
chain: FRNDKCGDTIKIESPGYLTSPGYPHSYHPSEKCEWLIQAPDPYQRIMINFNPHFDLEDRDCKYDYVEVFDGENENGHFRGKFCGKIAPPPVVSSGPFLFIKFVSDYETHGAGFSIRYELFKRGPECSQNYTTPSGVIKSPGFPEKYPNSLECTYIVFAPKMSEIILEFESFDLEPDSNPPGGMFCRYDRLEIWDGFPDVGPHIGRYCGQKTPGRIRSSSGILSMVFYTDSAIAKEGFSANYSVLQSSVSEDFKCMEALGMESGEIHSDQITASSQYSTNWSAERSRLNYPENGWTPGKKSYREWIQVDLGLLRFVTAVGTQGAISKETKKKYYVKTYKIDVSSNGEDWITIKEGNKPVLFQGNTNPTDVVVAVFPKPLITRFVRIKPATWETGISMRFEVYGCKITDYPCSGMLGMVSGLISDSQITSSNQGDRNWMPENIRLVTSRSGWALPPAPHSYINEWLQIDLGEEKIVRGIIIQGGKHRENKVFMRKFKIGYSNNGSDWKMIMDDSKRKAKSFEGNNNYDTPELRTFPALSTRFIRIYPERATHGGLGLRMELLGCEVEAPTAGPTTPNGNLVDECDDDQANCHSGTGDDFQLTGGTTVLATEKPTVIDSTIQSEFPTYGFNCEFGWGSHKTFCHWEHDNHVQLKWSVLTSKTGPIQDHTGDGNFIYSQADENQKGKVARLVSPVVYSQNSAHCMTFWYHMSGSHVGTLRVKLRYQKPEEYDQLVWMAIGHQGDHWKEGRVLLHKSLKLYQVIFEGEIGKGNLGGIAVDDISINNHISQEDCAKPADLDKKNPEIKIDETGSTPGYEGEGEGDKNISRKPGNVLKTLDPRSGSKENLYFQG
notes: a1a2-b1b2-c with E319K, D320K (held in the entry); Signal peptide not trimmed
B2: NRP1 trap M (receptor)
chain: FRNDKCGDTIKIESPGYLTSPGYPHSYHPSEKCEWLIQAPDPYQRIMINFNPHFDLEDRDCKYDYVEVFDGENENGHFRGKFCGKIAPPPVVSSGPFLFIKFVSDYETHGAGFSIRYELFKRGPECSQNYTTPSGVIKSPGFPEKYPNSLECTYIVFAPKMSEIILEFESFDLEPDSNPPGGMFCRYDRLEIWDGFPDVGPHIGRYCGQKTPGRIRSSSGILSMVFYTDSAIAKEGFSANYSVLQSSVSEDFKCMEALGMESGEIHSDQITASSQYSTNWSAERSRLNYPENGWTPGEDSYREWIQVDLGLLRFVTAVGTQGAISKETKKKYYVKTYKIDVSSNGEDWITIKEGNKPVLFQGNTNPTDVVVAVFPKPLITRFVRIKPATWETGISMRFEVYGCRSGSKENLYFQG
notes: a1a2-b1; Signal peptide not trimmed
B3: NRP1 trap AD (receptor)
chain: FRNDKCGDTIKIESPGYLTSPGYPHSYHPSEKCEWLIQAPDPYQRIMINFNPHFDLEDRDCKYDYVEVFDGENENGHFRGKFCGKIAPPPVVSSGPFLFIKFVSDYETHGAGFSIRYELFKRGPECSQNYTTPSGVIKSPGFPEKYPNSLECTYIVFAPKMSEIILEFESFDLEPDSNPPGGMFCRYDRLEIWDGFPDVGPHIGRYCGQKTPGRIRSSSGILSMVFYTDSAIAKEGFSANYSVLQSSVSEDFKCMEALGMESGEIHSDQITASSQYSTNWSAERSRLNYPENGWTPGEKSYREWIQVDLGLLRFVTAVGTQGAISKETKKKYYVKTYKIDVSSNGEDWITIKEGNKPVLFQGNTNPTDVVVAVFPKPLITRFVRIKPATWETGISMRFEVYGCRSGSKENLYFQG
notes: Signal peptide not trimmed
B4: NRP1 trap P (receptor)
chain: FRNDKCGDTIKIESPGYLTSPGYPHSYHPSEKCEWLIQAPDPYQRIMINFNPHFDLEDRDCKYDYVEVFDGENENGHFRGKFCGKIAPPPVVSSGPFLFIKFVSDYETHGAGFSIRYELFKRGPECSQNYTTPSGVIKSPGFPEKYPNSLECTYIVFAPKMSEIILEFESFDLEPDSNPPGGMFCRYDRLEIWDGFPDVGPHIGRYCGQKTPGRIRSSSGILSMVFYTDSAIAKEGFSANYSVLQSSVSEDFKCMEALGMESGEIHSDQITASSQASTNWSAERSRLNYPENGWTPGEDSYREWIQVDLGLLRFVTAVGTQGAISKETKKKYYVKTYKIDVSSNGEDWITIKEGNKPVLFQGNTNPTDVVVAVFPKPLITRFVRIKPATWETGISMRFEVYGCRSGSKENLYFQG
notes: a1a2-b1 with Y297A (held in the entry); Signal peptide not trimmed
B5: NRP1 trap AK (receptor)
chain: FRNDKRGPECSQNYTTPSGVIKSPGFPEKYPNSLECTYIVFAPKMSEIILEFESFDLEPDSNPPGGMFCRYDRLEIWDGFPDVGPHIGRYCGQKTPGRIRSSSGILSMVFYTDSAIAKEGFSANYSVLQSSVSEDFKCMEALGMESGEIHSDQITASSQYSTNWSAERSRLNYPENGWTPGEDSYREWIQVDLGLLRFVTAVGTQGAISKETKKKYYVKTYKIDVSSNGEDWITIKEGNKPVLFQGNTNPTDVVVAVFPKPLITRFVRIKPATWETGISMRFEVYGCKITDYPCSGMLGMVSGLISDSQITSSNQGDRNWMPENIRLVTSRSGWALPPAPHSYINEWLQIDLGEEKIVRGIIIQGGKHRENKVFMRKFKIGYSNNGSDWKMIMDDSKRKAKSFEGNNNYDTPELRTFPALSTRFIRIYPERATHGGLGLRMELLGCRSGSKENLYFQG
notes: a2b1b2; Signal peptide not trimmed
B6: NRP1 trap AE (receptor)
chain: FRNDKCGDTIKIESPGYLTSPGYPHSYHPSEKCEWLIQAPDPYQRIMINFNPHFDLEDRDCKYDYVEVFDGENENGHFRGKFCGKIAPPPVVSSGPFLFIKFVSDYETHGAGFSIRYELFKRGPECSQNYTTPSGVIKSPGFPEKYPNSLECTYIVFAPKMSEIILEFESFDLEPDSNPPGGMFCRYDRLEIWDGFPDVGPHIGRYCGQKTPGRIRSSSGILSMVFYTDSAIAKEGFSANYSVLQSSVSEDFKCMEALGMESGEIHSDQITASSQYSTNWSAERSRLNYPENGWTPGEKSYREWIQVDLGLLRFVTAVGTQGAISKETKKKYYVKTYKIDVSSNGEDWITIKEGNKPVLFQGNTNPTDVVVAVFPKPLITRFVRIKPATWETGISMRFEVYGCKITDYPCSGMLGMVSGLISDSQITSSNQGDRNWMPENIRLVTSRSGWALPPAPHSYINEWLQIDLGEEKIVRGIIIQGGKHRENKVFMRKFKIGYSNNGSDWKMIMDDSKRKAKSFEGNNNYDTPELRTFPALSTRFIRIYPERATHGGLGLRMELLGCRSGSKENLYFQG
notes: Signal peptide not trimmed
B7: NRP1 trap Q (receptor)
chain: FRNDKCGDTIKIESPGYLTSPGYPHSYHPSEKCEWLIQAPDPYQRIMINFNPHFDLEDRDCKYDYVEVFDGENENGHFRGKFCGKIAPPPVVSSGPFLFIKFVSDYETHGAGFSIRYELFKRGPECSQNYTTPSGVIKSPGFPEKYPNSLECTYIVFAPKMSEIILEFESFDLEPDSNPPGGMFCRYDRLEIWDGFPDVGPHIGRYCGQKTPGRIRSSSGILSMVFYTDSAIAKEGFSANYSVLQSSVSEDFKCMEALGMESGEIHSDQITASSQASTNWSAERSRLNYPENGWTPGEDSYREWIQVDLGLLRFVTAVGTQGAISKETKKKYYVKTYKIDVSSNGEDWITIKEGNKPVLFQGNTNPTDVVVAVFPKPLITRFVRIKPATWETGISMRFEVYGCKITDYPCSGMLGMVSGLISDSQITSSNQGDRNWMPENIRLVTSRSGWALPPAPHSYINEWLQIDLGEEKIVRGIIIQGGKHRENKVFMRKFKIGYSNNGSDWKMIMDDSKRKAKSFEGNNNYDTPELRTFPALSTRFIRIYPERATHGGLGLRMELLGCRSGSKENLYFQG
notes: a1a2-b1b2 with Y297A (held in the entry); Signal peptide not trimmed
B8: NRP1 trap AJ (receptor)
chain: FRNDKRGPECSQNYTTPSGVIKSPGFPEKYPNSLECTYIVFAPKMSEIILEFESFDLEPDSNPPGGMFCRYDRLEIWDGFPDVGPHIGRYCGQKTPGRIRSSSGILSMVFYTDSAIAKEGFSANYSVLQSSVSEDFKCMEALGMESGEIHSDQITASSQYSTNWSAERSRLNYPENGWTPGEDSYREWIQVDLGLLRFVTAVGTQGAISKETKKKYYVKTYKIDVSSNGEDWITIKEGNKPVLFQGNTNPTDVVVAVFPKPLITRFVRIKPATWETGISMRFEVYGCKITDYPCSGMLGMVSGLISDSQITSSNQGDRNWMPENIRLVTSRSGWALPPAPHSYINEWLQIDLGEEKIVRGIIIQGGKHRENKVFMRKFKIGYSNNGSDWKMIMDDSKRKAKSFEGNNNYDTPELRTFPALSTRFIRIYPERATHGGLGLRMELLGCEVEAPTAGPTTPNGNLVDECDDDQANCHSGTGDDFQLTGGTTVLATEKPTVIDSTIQSEFPTYGFNCEFGWGSHKTFCHWEHDNHVQLKWSVLTSKTGPIQDHTGDGNFIYSQADENQKGKVARLVSPVVYSQNSAHCMTFWYHMSGSHVGTLRVKLRYQKPEEYDQLVWMAIGHQGDHWKEGRVLLHKSLKLYQVIFEGEIGKGNLGGIAVDDISINNHISQEDCAKPADLDKKNPEIKIDETGSTPGYEGEGEGDKNISRKPGNVLKTLDPRSGSKENLYFQG
notes: a2b1b2c; Signal peptide not trimmed

biological target: T1, SEMA3A-FC (R&D systems); assay: saturation binding, trap coated on plate, SEMA3A-FC titrated, anti-human IgG-HRP chemiluminescence
Experimental: Sema 3A and AP-VEGF₁₆₅ binding assays. Saturation curves for the determinations of KD of binding to SEMA 3A or VEGF165 were obtained as follow. Wells of high protein binding 96 well plates (Maxisorp, Nunc) were coated with purified traps diluted in PBS and blocked afterward with binding buffer (PBS containing 2% casein and 0.05% Tween 20). The SEMA3A-FC (R&D systems) or AP-VEGF165 ligands were diluted in binding buffer over an extensive range of concentrations and added to wells. Following an overnight incubation, wells were washed with PBS containing 0.05% tween. Bound SEMA3a-FC was detected using an HRP-linked anti-Human IgG (Biorad) and ECL substrate (Pierce). Alternatively, bound AP-VEGF165 was detected using CPD star substrate (Roche). The Chemiluminescent signal was acquired on a TECAN reader. Dissociation constant (KD) were determined by non-linear curve fitting using the Graph Pad prism software.

**Q.** How did the Kd turn out when B1 was run?
**A.** Its Kd is 4.44 nM.

**Q.** With B2 as the binder, how does the Kd read?
**A.** Its Kd is 0.95 nM.

**Q.** Does B3 bind?
**A.** Result: no binding

**Q.** Does B4 bind?
**A.** Result: no binding

**Q.** B5 was tested. Which Kd did it give?
**A.** Its Kd is 4.4 nM.

**Q.** Does B6 bind?
**A.** Result: no binding

**Q.** Does B7 bind?
**A.** Result: no binding

**Q.** How did the Kd turn out when B8 was run?
**A.** Its Kd is 2.4 nM.
